Results taken from patent publication US8795627B2, “Treatment of liver disorders by administration of RAP conjugates” (Raptor Pharmaceuticals Inc., priority 2007, dated 2014).

Columns and labels:
[1] = target: CR pairs of the second ligand-binding domain of human LRP1; details: all pairs except CR9-CR10; read-out: affinity of adjacent CR pairs for RAP d3; cited from earlier work
LRP1 CR3-5 = LRP1 CR3-5 (Homo sapiens, UniProt Q07954); test: Binding of RAP d3 / MegaRAP1 d3 variants to LRP1 CR3-5; details: in words
Chain of LRP1 CR3-5 (Q07954 852-973 limits assumed): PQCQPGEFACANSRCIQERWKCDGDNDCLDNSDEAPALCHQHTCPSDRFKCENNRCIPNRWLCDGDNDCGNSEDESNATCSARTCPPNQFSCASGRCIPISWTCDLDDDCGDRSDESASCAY
Text: FIG. 1A-B depict binding of RAP d3, MegaRAP1 d3 (RAPv2A d3) and intermediate sequence variants to LRP2 CR89 and LRP1 CR3-5. FIG. 1A illustrates binding of RAP d3 mutants and RAPv2A d3 revertants to LRP2 CR89. FIG. 1B illustrates binding of RAP d3 mutants and RAPv2A d3 revertants to LRP1 CR3-5. Data were plotted and fitted by non-linear regression with the assumption of a single binding site (GraphPad Prism). Kd values with standard deviations were derived from the regression analysis.
Percent of maximum binding is the ratio of the OD at the highest concentration tested for each ligand and the highest OD measured for all such ligands at that concentration.

Row | Molecule | Kd [1] | binding to LRP1 CR domains (LRP1 CR3-5)
1 | RAP d3: third domain (d3) of receptor-associated protein, amino acids 200-323 of mature RAP; row 'RAP' of Table 2 (protein, listed as Homo sapiens) LDRLRRVSHQGYSTEAEFEEPRVIDLWDLAQSANLTDKELEAFREELKHFEAKIEKHNHYQKQLEIAHEKLRHAESVGDGERVSRSREKHALLEGRTKELGYTVKKHLQDLSGRISRARHNEL | 1 to 5 nM | 
2 | MegaRAP1: RAPd3 variant; Table 2 positions 213 T, 217 K, 249 Y, 251 K, 256 A, 270 E (protein) GLDRLRRVSHQGYTTEAKFEEPRVIDLWDLAQSANLTDKELEAFREELKYFKAKIEAHNHYQKQLEIAHEELRHAESVGDGERVSRSREKHALLEGRTKELGYTVKKHLQDLSGRISRARHNEL |  | fails to bind LRP1 CR domains
